Results on 14 molecules are retold here after article PMC12591191, “SIRT6 Lysine‐Demyristoylates ATF2 to Ameliorate Vascular Injury via PRKCD/VE‐Cadherin Pathway Regulating Vascular Endothelial Barrier” (Advanced Science, 2025).

Read-outs that look alike come from different tables or passages of the source. Where a SMILES comes first, the peptide text is derived from it. The star is where a group is joined. Biotin = O=C1N[C@H]2[C@H](CS[C@H]2CCCCC(=O)*)N1; Myristoyl = CCCCCCCCCCCCCC(=O)*

The test system of data set [1] is SIRT6. The following applies: SIRT6 inhibitor, cited from earlier work. From the text: Table 2 The inhibitors of SIRT6 were represented with structure, IC50, category, company, indications, and reference. | column: IC50
In data set [2] the target is T1, SIRT6 (Homo sapiens, UniProt Q8N6T7).
T1 construct: the full‐length human SIRT6 (1‐355aa) with the flag tag at the C‐terminus; His-tag (N); made in house; host or cells: E. coli ArcticExpress (DE3), pET28a
Description: Biolayer interferometry, SIRT6. In kind it is binding. The following applies: BLI, PBS-T, cofactor 5 mM. From the text:
(§1) The plasmid pUC57‐SIRT6 contained the full‐length human SIRT6 (1‐355aa) with the flag tag at the C‐terminus. The PCR fragment SIRT6‐Flag from pUC57‐SIRT6 was inserted into pET28a vector to obtain the plasmid pET28a‐SIRT6. Then the pET28a‐SIRT6G60A, pET28a‐SIRT6R65A, pET28a‐SIRT6S56Y, and pET28a‐SIRT6H133Y expression plasmids were obtained through site‐directed mutagenesis by PCR. These SIRT6 expression plasmids were used for SIRT6 expression and purification in E.coli.
(§2) The expression plasmids were transformed in the E.coli Arctic Express (DE3) cells, respectively. The E.coli cells were cultured at 37 °C in 2X YT culture medium. When OD600 reached 0.8, cells were induced by 0.2 mM isopropyl‐1‐thio‐β‐D‐galactopyranoside (IPTG) for 18–20 h at 16 °C. Then, cells were harvested by centrifugation at 6000 rpm for 10min at 4 °C and resuspended in lysis buffer (20 mM Tris‐HCl pH 7.2, 500 mM NaCl, 2% glycerol). Cells were lysed by a high‐pressure homogenizer (Avestin), and centrifuged at 15 000 rpm for room temperature min at 4 °C. […]
(§3) To determinate the affinity of SIRT6 proteins to myristoylated peptides, BLI assays were performed in 96 well plates using an Octet Red96 System. […] Meanwhile, the protein‐peptide affinities were also determined after adding several cofactors (5 mM), such as Mg^2+, Zn^2+, ATP, ADP, AMP, cAMP, NAD^+.
A general note: In BLI a coated tip is dipped into the sample, and binding shifts an interference pattern.

The target in data set [3] is T2, SIRT6 G60A (Homo sapiens, UniProt Q8N6T7, G60A).
T2 construct: the full‐length human SIRT6 (1‐355aa) with the flag tag at the C‐terminus; made in house; host or cells: E. coli ArcticExpress (DE3), pET28a
As to the kind of experiment: Biolayer interferometry, G60A mutant. The following applies: BLI, Octet Red96, PBS-T, 120 µM biotin peptide on sensor, analyte G60A 0.18 to 5.5 µM. In kind it is binding.
Description: as §1, §2, §3

The subject of data set [4] is aortic endothelium (VE-Cadherin junction continuity). As to the kind of experiment: En face VE-Cadherin staining of descending aortas. In kind it is in vivo, mouse. As to the method: Endothelial specific Sirt6 KO (ecSirt6^−/− ) mice (on a C57/Bl6J background) were developed by Cyagen Biosciences lnc. and litter of wild‐type (WT) mice served as control. Genotyping by tail preparation and PCR were performed at 2 weeks of age. All animal procedures were conducted under animal welfare guidelines and were approved by the Animal Ethics Committee of Zhongshan Hospital, Fudan University (EARIA‐389).
The cultivation and collection of mice were described above. Remove the outer membrane and longitudinally cut the thoracic aorta of mice for surface staining. After being fixed in 4% paraformaldehyde for 20 min, 0.5% Triton X‐100 was infiltrated into PBS for 30 min, and 10% normal goat serum was blocked in PBS for 1 h. Then, the corresponding primary antibody was incubated overnight at 4 °C. Then, wash HUVECs or tissues three times with PBS, coupled with the corresponding Alexa Fluor 488‐conjugated goat anti‐rabbit IgG (Thermo, cat#A‐11008) or Alexa Fluor 594 ‐conjugated goat anti‐mouse IgG (Thermo, cat#A‐11 005) (1:500; at room temperature, place in a closed solution for 1 h). Cover the slide with DAPI containing fluorine shielding adhesive medium. Randomly select representative images from each group. Fluorescence signal detection was performed using Leica confocal laser scanning microscope (Leica SP8).

Data set [5] has as its system ATF2 localization and PRKCD/VE‐cadherin axis in HUVECs. As to the kind of experiment: ALK14 versus myristic acid, ATF2 localization and PRKCD/VE-cadherin axis. In kind it is cell-based. The following applies: each 10 μg/ml, 12 hours. As for the experimental part: Protein samples were separated by SDS/PAGE and transferred to the PVDF membrane. The membrane was blocked with 5% BSA in TBST (25 mM Tris, pH 7.4, 150 mM NaCl, 0.1% Tween‐20), incubated with primary antibodies and secondary antibodies in TBST, and then treated with ECL Plus western blotting detection reagents (Bio‐rad). The chemiluminescence signal was analyzed by ChemiDoc imaging system (Bio‐rad).
HMEC‐1, obtained from Shanghai Zhong Qiao Xin Zhou Biotechnology, was cultured in MCDB131 medium containing 10% foetal bovine serum (FBS) and 1% antibiotics (penicillin and streptomycin) in 5% CO2 incubator at 37 °C. HUVEC, obtained from Shanghai Zhong Qiao Xin Zhou Biotechnology, were cultured in ECM medium containing 5% FBS, 1% antibiotics (penicillin and streptomycin) and 1% endothelial cell growth supplement (ECGS) in 5% CO2 incubator at 37 °C. HEK 293T were obtained from ATCC, and cultured in Dulbecco's modified Eagle's medium (DM EM) containing 10% FBS and 1% antibiotics (penicillin and streptomycin) in 5% CO2 incubator at 37 °C. The SIRT6 KO 293T cells were constructed by Hanbio Biotechnology, the SIRT6 gRNA was 5′‐[…]‐3′. SIRT6 overexpression and knockdown recombinant lentivirus were constructed by Hanbio Biotechnology, the vector pGLV3‐harboring SIRT6 and SIRT6 shRNA (5′‐[…]‐3′) were used for lentivirus packaging. […]

Data set [6] deals with B‐H3K9^Ac‐5R. As to the kind of experiment: Deacetylase activity by HPLC. In kind it is biochemical. The following applies: UV 220 nm, 6 µM enzyme, 450 µM peptide, Tris‐HCl pH 8.0, 6 mM MgCl2, 1 mM NAD^+, 30 °C, 4 h. As to the method:
(§4) The expression plasmids were transformed in the E.coli Arctic Express (DE3) cells, respectively. The E.coli cells were cultured at 37 °C in 2X YT culture medium. When OD600 reached 0.8, cells were induced by 0.2 mM isopropyl‐1‐thio‐β‐D‐galactopyranoside (IPTG) for 18–20 h at 16 °C. Then, cells were harvested by centrifugation at 6000 rpm for 10min at 4 °C and resuspended in lysis buffer (20 mM Tris‐HCl pH 7.2, 500 mM NaCl, 2% glycerol). Cells were lysed by a high‐pressure homogenizer (Avestin), and centrifuged at 15 000 rpm for […] min at 4 °C. The supernatants were incubated with Ni^+ Sepharose (GE Healthcare) which was pre‐equilibrated in lysis buffer. The resin was washed with 20 column volumes of lysis buffer supplemented with 50 mM imidazole, and then the recombinant proteins were eluted with lysis buffer supplemented with 500 mM imidazole. The eluted fractions were pooled, buffer exchanged (20 mM Tris‐HCl pH 7.2, 250 mM NaCl, 10% glycerol), and concentrated. Finally, the endotoxin was removed by the Pierce High‐Capacity Endotoxin Removal Spin Columns. The purified proteins were stored at −80 °C.
(§5) The peptides B‐H3K9‐5R (biotin‐[…]), B‐H3K9^Ac‐5R (biotin‐KQTARK^Ac[…]), and B‐H3K9^Myr‐5R (biotin‐KQTARK^Myr[…]) were synthesized. Five arginine residues were added to ensure that the peptides were soluble in water. SIRT6 protein SIRT6 and mutants (6 µM) were incubated with the peptides (450 µM) in the reaction system ([…] Tris‐HCl pH 8.0, 6 mM MgCl2, 1 mM NAD^+) at 30 °C. After 4 h, the reactions were terminated by adding 4% TFA at 37 °C for 10 min. After centrifuging at 12 000rpm for 15 min at room temperature, the supernatants were collected and analyzed via HPLC using an Aeris peptide XB‐C18 column (150 × 4.6 mm, 3.6 µm; Phenomenex, USA). The mobile phase consisted of solvent A (0.1% TFA in HPLC‐grade H2O) and solvent B (0.1% TFA in HPLC‐grade acetonitrile). Peptides were eluted in a linear gradient of 0–90% solvent B at 1 ml min^−1 over 19 min. The column temperature was set at 25 °C, and the peptides were monitored with UV light (220 nm).

The test system of data set [7] is B‐H3K9^Myr‐5R. As to the kind of experiment: Demyristoylase activity by HPLC. Format: biochemical. The following applies: UV 220 nm, 6 µM enzyme, 450 µM peptide, Tris‐HCl pH 8.0, 6 mM MgCl2, 1 mM NAD^+, 30 °C, 4 h. As for the experimental part:
as §4, §5

The target in data set [8] is T3, SIRT6 H133Y (dSIRT6) (Homo sapiens, UniProt Q8N6T7, H133Y).
T3 construct: the full‐length human SIRT6 (1‐355aa) with the flag tag at the C‐terminus; made in house; host or cells: E. coli ArcticExpress (DE3), pET28a
Description: Co-immunoprecipitation enrichment of myristoylated peptide. In kind it is binding. The following applies: Co-IP with negative control peptide, n=3. As to the method:
SIRT6/mutants (10 µM) were incubated with B‐H3K9^Myr‐5R or B‐H3K9‐5R (7 µM) in different IP buffers based on buffer (1X PBS, 0.2% tween‐20) at 30 °C for 4h. Then the mixtures were incubated with magnetic flag‐beads at room temperature for 2h. Then, tubes were placed on a magnetic rack for 1 minute, and the supernatants were discarded. The beads were washed three times with an IP buffer and eluted with different elution buffers. The eluants and beads were then analyzed by western blotting with biotin monoclonal antibody or SIRT6 antibody.

T1 sequence (Q8N6T7 whole entry): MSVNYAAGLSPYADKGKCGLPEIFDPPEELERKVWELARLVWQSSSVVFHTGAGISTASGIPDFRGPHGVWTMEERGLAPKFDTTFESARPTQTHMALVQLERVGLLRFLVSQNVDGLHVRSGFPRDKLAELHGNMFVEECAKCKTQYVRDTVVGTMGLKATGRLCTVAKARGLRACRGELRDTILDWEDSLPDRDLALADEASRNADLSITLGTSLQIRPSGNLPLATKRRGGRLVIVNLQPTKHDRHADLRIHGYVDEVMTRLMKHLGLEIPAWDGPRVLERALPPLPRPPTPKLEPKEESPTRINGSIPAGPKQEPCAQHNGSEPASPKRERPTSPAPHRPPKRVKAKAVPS
T2 sequence (Q8N6T7 whole entry G60A): as the sequence (Q8N6T7 whole entry) above, with G60A counted along it
T3 sequence (Q8N6T7 whole entry H133Y): as the sequence (Q8N6T7 whole entry) above, with H133Y counted along it

By IC50 is commonly meant the midpoint of a concentration-inhibition curve. In the case of `CN1CCN(c2ccc([N+](=O)[O-])c(N)c2)CC1` [5‐(4‐methylpiperazin‐1‐yl)‐2‐nitroaniline], the IC50 in data set [1] (ref [65]) was 4.93 µM.
As to `Nc1ncnc2c1ncn2[C@@H]1O[C@H](COP(=O)(O)OP(=O)(O)O)[C@@H](O)[C@H]1O` [ADP], the “effect of cofactor on SIRT6 affinity for B‐H3K9^Myr‐5R” value in data set [2] is recorded as “significantly enhanced SIRT6 affinity”.
Same read-out and setting: then `Nc1ncnc2c1ncn2[C@@H]1O[C@H](COP(=O)(O)OP(=O)(O)OP(=O)(O)O)[C@@H](O)[C@H]1O` [ATP], with “significantly enhanced SIRT6 affinity”.
A word on the Kd: it is the free concentration of one partner at which half of the binding sites on the other are occupied at equilibrium, for simple one-to-one binding. Take `CCCCCCCCCCCCCC(=O)NCCCC[C@H](NC(=O)[C@H](CCCNC(=N)N)NC(=O)[C@H](C)NC(=O)[C@@H](NC(=O)[C@H](CCC(N)=O)NC(=O)[C@H](CCCCN)NC(=O)CCCC[C@@H]1SC[C@@H]2NC(=O)N[C@@H]21)[C@@H](C)O)C(=O)N[C@@H](CO)C(=O)N[C@H](C(=O)NCC(=O)NCC(=O)N[C@@H](CCCCN)C(=O)N[C@@H](C)C(=O)N[C@@H](CCCNC(=N)N)C(=O)N[C@@H](CCCNC(=N)N)C(=O)N[C@@H](CCCNC(=N)N)C(=O)N[C@@H](CCCNC(=N)N)C(=O)N[C@@H](CCCNC(=N)N)C(=O)O)[C@@H](C)O` [B‐H3K9^Myr‐5R] (Biotin-KQTARK(Myristoyl)STGGKARRRRR-OH): the Kd in data set [3] stood at 1300 ± 110 nM.
Regarding `Cc1nn(C)c(C)c1NS(=O)(=O)c1c(Cl)cc(-c2ccnc(N3CCNCC3)c2)cc1Cl` [DDD85646], in data set [4] (100 mg kg^−1 day^−1, n = 6–8), the therapeutic efficacy result is listed as “suboptimal therapeutic efficacy”.
As for `NC(=O)c1ccc[n+]([C@@H]2O[C@H](COP(=O)([O-])O)[C@@H](O)[C@H]2O)c1` [NMN], the “endothelial damage induced by high‐fat diet in SIRT6‐deficient endothelium” value in data set [4] (NMN 100 mg kg^−1 day^−1, n = 6–8) is recorded as “partially rescued endothelial damage”.
On to `O=C(Nc1ccc(O)c(C(=O)O)c1)c1cccc(NC(=O)c2ccco2)c1` [OSS‐128167], for which the IC50 in data set [1] (ref [68]) was 89 µM.
In the case of `CCCCCCCCCCCCCC(=O)O` [natural myristic acid, Myristic acid], in data set [5], the “impact on ATF2 localization and PRKCD/VE‐cadherin axis, myristic acid versus ALK14” value is given as “equivalent impacts”.
For the molecule Diquercetin, the IC50 in data set [1] (ref [64]) was 130 µM.
Consider G60A: SIRT6 G60A mutant, for which the deacetylase activity entry in data set [6] was “without detectable deacetylase activity”. Moreover, the demyristoylase activity result in data set [7] was “strong demyristoylase activity”.
Regarding H133Y: SIRT6 H133Y mutant, the deacetylase activity entry in data set [6] was “lacked both enzymatic activities”. The “selectivity of H133Y for myristoylated peptide” value in data set [8] is reported as “confirmed the selectivity”. The demyristoylase activity result in data set [7] was “lacked both enzymatic activities”.
For the molecule R65A: SIRT6 R65A mutant, the deacetylase activity result in data set [6] was “weak deacetylase activity”. In data set [7], the demyristoylase activity entry is “lacked demyristoylase activity”.
The corresponding values for S56Y: SIRT6 S56Y mutant are “lacked both enzymatic activities” and “lacked both enzymatic activities”.
As for “SIRT6 WT: full‐length human SIRT6 (1‐355aa) with the flag tag at the C‐terminus, expressed in E.coli”, in data set [6], the deacetylase activity entry is “weak deacetylase activity”. Further, the demyristoylase activity result in data set [7] is reported as “significant demyristoylase activity”.
